Laboratory results published in US20060204979A1 (INVITROGEN, published 2006).

B1: Fos (leucine zipper region), negative control prey with Krev1 (other, UniProt P01100 132-211, looked up, not shown: large carriers)
chain: LSPEEEEKRRIRRERNKMAAAKCRNRRRELTDTLQAETDQLEDEKSALQTEIANLLKEKEKLEFILAAHRPACKIPDDLG
notes: domain: leucine zipper region; the only Fos ORF it describes is the leucine zipper region
B2: RalGDS ras association (RA) domain expressed from pEXP22/RalGDS as GAL4 AD fusion (other, UniProt Q03386 767-864, looked up, not shown: large carriers)
chain: SSSLPLYNQQVGDCCIIRVSLDVDNGNMYKSILVTSQDKAPTVIRKAMDKHNLDEDEPEDYELLQIISEDHKLKIPENANVFYAMNSAANYDFILKKR
notes: domain: ras association domain; Prey; also called RalGDS wild type
B3: RalGDS RA allele 16, R20M (other, not shown: small tags and cut ends)
chain: YNQQVGDCCIIMVSLDVDNGNMYKSILVTSQDKAPTVIRKAMDKHNLDEDEPEDYELLQIISEDHKLKIPENANVFYAMNSAANYDFILKKR
B4: RalGDS RA alleles 6 and 15, K52E (other, not shown: small tags and cut ends)
chain: YNQQVGDCCIIRVSLDVDNGNMYKSILVTSQDKAPTVIRKAMDEHNLDEDEPEDYELLQIISEDHKLKIPENANVFYAMNSAANYDFILKKR
notes: also called clone 6 (RalGDS screen); clone 15
B5: RalGDS RA alleles 3, 8, 27, 30, 35 and 36, L65P (other, not shown: small tags and cut ends)
chain: YNQQVGDCCIIRVSLDVDNGNMYKSILVTSQDKAPTVIRKAMDKHNLDEDEPEDYEPLQIISEDHKLKIPENANVFYAMNSAANYDFILKKR
notes: Six clones with the same amino acid change; also called clone 3; clone 8
B6: RalGDS RA allele 4, I77T (other, not shown: small tags and cut ends)
chain: YNQQVGDCCIIRVSLDVDNGNMYKSILVTSQDKAPTVIRKAMDKHNLDEDEPEDYELLQIISEDHKLKTPENANVFYAMNSAANYDFILKKR
B7: RalGDS RA alleles 17 and 19, Y31C (other, not shown: small tags and cut ends)
chain: YNQQVGDCCIIRVSLDVDNGNMCKSILVTSQDKAPTVIRKAMDKHNLDEDEPEDYELLQIISEDHKLKIPENANVFYAMNSAANYDFILKKR
notes: also called clone 17; clone 19
B8: RalGDS RA allele 22, Q67R (other, not shown: small tags and cut ends)
chain: YNQQVGDCCIIRVSLDVDNGNMYKSILVTSQDKAPTVIRKAMDKHNLDEDEPEDYELLRIISEDHKLKIPENANVFYAMNSAANYDFILKKR
B9: RalGDS RA allele 2, L66P (other, not shown: small tags and cut ends)
chain: YNQQVGDCCIIRVSLDVDNGNMYKSILVTSQDKAPTVIRKAMDKHNLDEDEPEDYELPQIISEDHKLKIPENANVFYAMNSAANYDFILKKR
notes: also called clone 2
B10: RalGDS RA allele 23, M50V (other, not shown: small tags and cut ends)
chain: YNQQVGDCCIIRVSLDVDNGNMYKSILVTSQDKAPTVIRKAVDKHNLDEDEPEDYELLQIISEDHKLKIPENANVFYAMNSAANYDFILKKR

Legend:
[1] = target: T1, Krev1 (full-length ORF) expressed from pEXP32/Krev1 as GAL4 DBD fusion (rat, UniProt P04386 1-147; P62836 1-184); assay: yeast two-hybrid negative control, HIS3/3-AT reporter
T1 construct: Bait; also called Rap1A
Description: Yeast transformations were performed according to MaV203 competent yeast cell protocol (Invitrogen, Carlsbad, Calif.) using Gateway destination vectors pDEST32 and pDEST 22 (Invitrogen.com). Briefly, 25 μl cells are mixed with 1 μg bait construct (pEXP32-Bait ORF) and 1 μg prey allele library (EXP22-Prey allele library). pEXP32 is an expression construct in which a partner sequence (“bait”) is fused to the GAL4 DBD. pEXP22 is an expression construct in which a target sequence (“prey”) is fused to the GAL4 AD. Next, 180 μl LiAc/PEG solution is added and tube is inverted several times to mix. Incubate at 30° C. for 30 min, add 10 μl DMSO and heat shock at 42° C. for 10 min. Spin down cells at 1800 rpm, resuspend in 1 ml dH2O, serial dilute to 10⁻². Plate 100 μl of dilutions 10⁻¹ and 10⁻² on CSM-LW, and 100 μl undiluted and dilution 10⁻¹ on CSM-LW+5-FOA. Incubate plates at 30° C. for 3-5 five days. Patch colonies from CSM-LW+5-FOA onto CSM-LW (along with positive and negative control patches) and incubate at 30° C. for 2 days. Replica plate onto CSM-LW and CSM-LWH+3-AT (10 mM, 25 mM, 50 mM and 100 mM). […]
In creating the allele library for RalGDS, it was calculated using the guidelines in Materials and Methods that 200,000 individual Kan⁺ clones was sufficient to provide good library representation for the 296 bp ORF. […]

[2] = target: T1, Krev1 (full-length ORF) expressed from …; assay: yeast two-hybrid (ProQuest)
[3] = target: T1, Krev1 (full-length ORF) expressed from …; assay: cell-based or functional assay
[4] = target: T1, Krev1 (full-length ORF) expressed from …; assay: yeast two-hybrid; no growth under histidine selection with 10 mM 3-AT, no URA3 activation
Description: To confirm the initial mutant phenotypes, plasmid DNA from the 17 mutant alleles and 6 wild type clones was co-transformed into MaV203 with pEXP32-Krev1. Transformants were tested for their ability to activate the URA3 reporter, as well as the HIS3 reporter in the presence of 10 mM, 25 mM, 50 mM or 100 mM 3-AT. All six wild type clones (7, 9, 11, 12, 20 and 21) produced strong URA⁺ and HIS3/100 mM 3-AT⁺ phenotypes, except clone 20. […] Clone 4 (I77T) and 23 (M50V) were the only mutants displaying a strong growth phenotype in the presence of 100 mM 3-AT.

Row | Binder | binding result [1] | binding result [2] | 3-AT Phenotype (concentration of 3-AT required to inhibit growth under histidine selection, HIS3 reporter) [3] [mM] | binding result [4]
1 | B1 | no binding | – | – | –
2 | B2 | – | binds | – | –
3 | B3 | – | – | 50 | –
4 | B4 | – | – | 10 | no binding
5 | B5 | – | – | 10 | no binding
6 | B6 | – | – | > 100 | –
7 | B7 | – | – | 10 | no binding
8 | B8 | – | – | 100 | –
9 | B9 | – | – | 10 | no binding
10 | B10 | – | – | > 100 | –
